Like-named read-outs stand apart in the source and are kept apart here. One block for each compound: values may come before it.
Experiments:
[1] = biological target: double-cubane cluster protein reductase (DCCP-R) from Carboxydothermus hydrogenoformans (Carboxydothermus hydrogenoformans); assay: SEC
[2] = biological target: double-cubane cluster protein (DCCP); assay: SEC
[3] = biological target: double-cubane cluster protein (DCCP); assay: SEC; remark: listed apart in the source
[4] = biological target: double-cubane cluster protein (DCCP); assay: ITC
[5] = biological target: double-cubane cluster protein reductase (DCCP-R); assay: SEC
[6] = biological target: double-cubane cluster protein (DCCP); assay: ITC; remark: listed apart in the source
[7] = biological target: T1, DCCP-R (double-cubane cluster protein reductase) (Carboxydothermus hydrogenoformans, UniProt Q3AET8); assay: isothermal titration calorimetry; assay type: binding
T1 sequence (Q3AET8 1-245): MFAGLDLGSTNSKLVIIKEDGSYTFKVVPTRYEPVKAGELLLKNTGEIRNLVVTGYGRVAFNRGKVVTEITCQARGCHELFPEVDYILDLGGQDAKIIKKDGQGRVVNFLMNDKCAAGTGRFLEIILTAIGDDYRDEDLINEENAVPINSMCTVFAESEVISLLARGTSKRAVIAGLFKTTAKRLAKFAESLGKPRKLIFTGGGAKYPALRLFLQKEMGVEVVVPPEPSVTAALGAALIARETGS

DCCP:DCCP-R complex = biological target: T2, DCCP:DCCP-R complex (Carboxydothermus hydrogenoformans, UniProt Q3AET8); assay: isothermal titration calorimetry; assay type: binding; conditions: Mg2+; 50 mM Tris-HCl pH 8.0, 25 °C, anoxic; DCCP present in cell; reduced DCCP-R
T2 sequence (Q3AET8 1-245): T1 sequence (Q3AET8 1-245)
T2 sequence (Q3AET9 1-421 partner): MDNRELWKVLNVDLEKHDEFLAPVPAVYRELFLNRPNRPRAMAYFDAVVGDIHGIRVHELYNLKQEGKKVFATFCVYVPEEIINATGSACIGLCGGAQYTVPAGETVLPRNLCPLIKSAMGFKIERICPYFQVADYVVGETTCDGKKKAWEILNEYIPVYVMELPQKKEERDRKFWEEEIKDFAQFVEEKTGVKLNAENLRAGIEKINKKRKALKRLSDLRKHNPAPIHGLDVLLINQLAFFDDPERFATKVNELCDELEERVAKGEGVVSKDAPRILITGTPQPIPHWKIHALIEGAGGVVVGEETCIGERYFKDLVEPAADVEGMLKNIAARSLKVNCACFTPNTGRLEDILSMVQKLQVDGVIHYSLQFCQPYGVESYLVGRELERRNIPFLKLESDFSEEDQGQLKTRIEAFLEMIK

Compound: double-cubane cluster protein reductase (DCCP-R) (enzyme)
dH [4]: -31.5 kcal/mol | stoichiometry N [5]: 2 | dH [6]: 5.9 kcal/mol

Compound: Nc1ncnc2c1ncn2[C@@H]1O[C@H](COP(=O)(O)OP(=O)(O)O)[C@@H](O)[C@H]1O [MgADP]
Kd [7]: 42 ± 7 µM

Second part, the compound after the results:

stoichiometry N [1]: 2
Compound: double-cubane cluster protein reductase (DCCP-R) from Carboxydothermus hydrogenoformans (enzyme)

stoichiometry N [2]: 2 | stoichiometry N [3]: 2
Compound: double-cubane cluster protein (DCCP) (enzyme)

Kd [7]: 15 ± 0.5 µM | Kd (DCCP:DCCP-R complex): 7.1 ± 1.1 µM
Compound: Nc1ncnc2c1ncn2[C@@H]1O[C@H](COP(=O)(O)OP(=O)(O)NP(=O)(O)O)[C@@H](O)[C@H]1O [MgADPNP, 5′-adenylyl β, γ-imidodiphosphate]

— article PMC9351452 (Proceedings of the National Academy of Sciences of the …, 2022)
